Values of other authors in paper PMC4652169.

Biological target: IgG Fc Fc (Homo sapiens) [IgG part: P01857]
Experiment: given as Ka

For “Protein A Z domain (ZWT) Z domain (from UniProt P02976)”, the Kd is given as 16.9 nM.
